Test results as given in the domain aggregation screens of Martell et al. (2025).

assay: soluble fraction after stress (log2 fold change); higher = more stays soluble; pooled small domains, quantitative proteomics; details: stress: pH 4
Method in brief: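 Pooled custom libraries of small protein domains were subjected to pH 4 and measured by high-throughput quantitative proteomics. The log2 fold change in soluble amount per domain is reported, higher values meaning more remained soluble. This is used as a measure of aggregation propensity.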

Sequence	soluble fraction (log2)
HMESGSSKINQDILETFTRGKKSLSISDISRLSGHHRHTVARYLDNLVSSGKLEMRQHGQKKKYYLSDIQP	0.0709
HMNQRQLQIKQMLDVAQEVFLKQLKTVFPDVSEMTIRRDLILLEDMGYAVRTHGGAVSINRF	-1.2
HMTNTDYPGKVVPVDPDGKTLKPDGDASYNDKPGTKVKTPTVPGYTAEVPNVEVPVGGGDIKVTYHKKPV	0.0461
HMDGIRLYPGLMIEHKNFGRGQVVSVNRERGTFTAFFGKNGTRTLTIQILKTDTVRPLASQKAGK	-0.405
HMQRDERYVYHTVLAGETIYSLSRKFNVTMDELLESNPALRSGVLTTGSEIRVLKAQMAQNFD	0.383
HMIDIGSKIKKLRSKKSIEIGKKYTGAMLANELGISRSYLGDIESGRTVPNEIILGKIADIFDVDIYELIG	-0.405
HMKKYLTETEAAAYLNMPVEEIKAAITKGEIEQYVKTSSGYTISVEELDKFFGQKAYDTMTSNNS	-0.43
HMNEMIFNQKKIGQFFMNPETNSPMIYPLELGHKMKIIELKNGWYNVTDEKTGLNGWVKEEDFGVTKPLDS	0.0629
HMGSLVQTAMQAVTKHIHDNAMRVGDTLPGEGHFAETLGVSRAVMREAFGALAALKLIDVGNGRKPRVGR	0.091
HMPLDISDDSKAVLKLLKNDSNELNTVKSASGLSNKKWDKTIKELTKNKIVSVSKTEDGLYIHLI	0.336
HMETGKLIKELRLKKGMTQEELADKTEVSSRTIQRIENGEVDPRAYTLQMIARALEVDYSLFME	-0.683
HMGASLVIVPGAGFLRVSASSQTRLDVYSITGMRVRSVDFEPGTTEIELPAGFYIAGGRKFFV	-0.124
HMLTRQRKQLLEYLSKHTDEQMTARQIADALTAESISISAVYRNLSALEEEGILKRSIRENTREVYYQYIA	-0.231
HMNNSDIDITVGKNSISINNPNRTNIIIYSSNGMLIDSSKNASYKRNLPSGIYIVKSGSSTHKVIV	≥ 0.43
HMQTEFVISSGEQPKRLDVFLLQREPYLSRAALQRMIAAGWVRVNNHLAKSSQRIKAGDVIVFD	0.0697
HMDLANRSLDRGITILESLARNGASSLADLHRDSGIAKSTIRRLLGTLIQHRLVRRSVADGLYRVTIPLPA	0.025
HMNEDTEDIKNINSLVNKLTENNFDIIRDSIVKLINKEHLIPYIIETIIEKSILHHRYVHLYVSILKE	-0.119
HMTTTAGTAVVQTGNSGKLNLREQAYSNAGILGRYSNGTIVTVLQKGSAWSYVEVQGQKGYMMSKFLRFT	-0.386
HMDPSKMKIDELEIATRTATALADGGIKSVAGLIRKSASALKELDGVGDKAIAEITEALEKLGLELKG	-0.157
HMREVEAPRDLLAALGERPGALDAWKALSFTHQREYVEAIEDARKPETRERRIANAVKMVAERS	0.111
HMNPEDDLLKAIIMKYFSNAQVQVDKNVIEYLLKRVDRDYQNLYNILEKINILSLQRKSKITTHLIRDIM	-0.624
HMSTADGGYPSIVINDGRVIDTNLQKLGLDRSWLSAELKRQGKGSEKDIFLMTVNQRREVYISVKEA	-0.589
HMTTQTGTVKWFNEGKGFGFIAPDDGGKDLFAHFKEIQGTGFKTLAENQRVEFEVTQGQKGPQASKI	-0.469
HMDLPGIVTETDRQRADLAARIGAAKVEAVLAGGARSVEADEDFDADTRRELHQFLTRMARRAFLEER	-0.722
HMQTLQNNLKQIRSRVGLTQGELASRAGISRQAYSTLESGNANPSTEVSLRLAEALNERIESLFFLANQ	-0.846

Sequence	soluble fraction (log2)
HMGVNNDIIKHRKLEFMIEMLPDTFTRKEANEIGEGLGISLATLTRYLSSDAFERTGHGRYRKKD	0.139
HMGASFITSSKDNAINIRESATTDSKVIETIKNGEILESTEKSGDWHKVTYYNSEIKKSFTGYIHNSQLK	-0.151
HMDEPSITYGKVKVQTSLNVRQGPGTQYARIGSLGPNVRIQILGQEGQWYKIKYGNLQGYVHSDYVELEK	-0.376
HMPRPFPELTTREHDILALIARGWSNGRIADHLSLSGKTVSNYVSNILGKLQVTARAEAAERAREAGMGQ	-0.401
HMATQTGTVKWFNEGKGFGFIAPDDGSKDLFAHFSEIKTTGFKTLAEAQRVEFEVTEGRKGLQASNIK	-0.244
HMVETDQESSLIQAIYKYFEITGDNTFFDEKVGEKTVADRMEWAMDYLIQNRFSEEYGLIWGA	-0.517
HMEIYEEDRTKVVNDLMDQILNRQITMDAAATKFINIRNSLGTTITKEDEQNLEMLRGLIFDKT	-1.17
HMATTMSADWRPSEDAVGILVNAEINARFIEDAIPEFVLYWRERGAVHGAWNSKFIEHIRRQWAKFSAS	-1.31
HMQKTIDWSQVDKEQYLSAMERSPVNDLEIKAILAKALTSDINNRELFMKGLDHSYYFEGYQLFKSE	-0.939
HMNEPSSYGYAISVALDRNGLGTVKGGTLYPLLARLEQAAHVETRWEAGDGGPGRKYYTITDSGRS	-0.41
HMNDRLAGMEGQRGEAATNFDQGEGKVKVGDTVWLAKQSDSTVIVEGDQIVVTGSENGLLKVRL	-0.453
HMSDIPEGYMSRVQLGDEWGIHLATFDKAVIAVKEKLGTVVFIDKSNNTTAGYSPEQQTIIYDWLAEN	0.29
HMVEDFSEVLLQYIREQGGAIALNDKTDAGVIYDTFGVSKKTFKKAVGDLYKKRLIVLGDEGIRLA	-0.939
HMIKRDLAFSEFIAEVKAGQVREVTIKGNSISGNLNDGREFNTYAPNDPNLVKTLTDQGVLIRAIPLE	0.227
HMTQTDINQIETLVHEGNKLAAVKLLMDTAHIGLKEAKDIIDNFFLGKQTDLQAAVAQVQTR	-0.722
HMSTTALLEKMVRYIRTLPVISQVVLSLHYYRGMELREIASELDITESRASQLHTTAVLGIRDLLSSY	-2.02
HMVSDAWITGKVKSQLLADDVTPGMKIDVDTEDRIVSLKGTVPSLTARNEAIRIASHTKGVRTVDADELIV	-0.0247
HMEKIRIQKYLSERGVMSRRAADSALAEGRIAVNGVTARPGDKIDPSSDTLTIDGRIVTTGTAP	≥ 0.43
HMPGEATVPSVIGMTKAEAKAKLQASGFELGYSEFVASDKPKGEIVEQDPGAGETAKGGTEVNVKISDGS	-0.187
HMDWREMTAWMAELLKRRTGDDVETWNARVRESGAHDEASLRAWLTEQGVTGYAQTLLVMERFGYPDFF	-1.67
HMGTAESIRLFLSSGLIKGVGEALAGRIVDTFGTDTFDIIENHPELLAGVKGISHRLAMSIYESFSQHIGV	-0.951
HMKSNNPLDHVRVKQRGASWAYYFEKAKVDGKRRRGEGGGYATEQDARMAGVEAYNAYIGGGAK	0.109
HMTRQNTAVQQSDMAHHKASELTEGMSIVHSHFGRGTIISIETADDPRVTVDFSSEGRKTMLLRFAKFAIE	-1.08
HMEENNIVIYITGAVKKEGIYEIKENSRISDAIEAAGGLLENANIKDINLAYIIEDGVKIYIPTNEEVNK	-1.35
HMDEEVLVVQEGGERLDVFVAANAEGITRSFVQNLIKKGDVTVDGAPRKANYRLRSGQVVRFSLPEP	0.293

Sequence	soluble fraction (log2)
HMFQRLPFSFANRYKMVLEYQHPERPPVLYYVEPLKAAAILEVSRVIKSGFTPQAIVSDEFEKKLTEAYQR	0.0565
HMSLSKEEFETISKQVLELAGAGPIPVKELLQKMERTSKEKAWKVIEFLQAEDKIVPDATGRIQL	-0.457
HMQNKYIIKQGNSGELVEVLQELLNLKQDGVFGPQTKKAVIAFQQKHKLVADGIVGPMSWRKLNFNPEELF	-0.282
HMKFNEKQNEVRIAIMNFIIDNKRPFHMKQDGYDALEGITLSGRHEFQDILDVLHSRDGFSADEEGNINF	-1.69
HMNENDENLRQQAIDASKEVRRWGEPVTLPPMNAHDRRIIHITLEGESDLQTESTGEGNFKSVVISLK	0.0645
HMNKSYTVPDVRGMTVEEAQEAEGVKDIFTVHVQGTRKTDEYQPGQIVEQDPIAGRTRKSNFVIEVYVAE	-0.237
HMKEIYIDRGKEALEKELRKRKIPFQEFLSKENTNLLFDTLKIPSHDLEELYLEIGNGKHAASTVVNTVY	-0.0339
HMSSEMATLRSIVDNKQAEKVHGMMVDMFTASAMVQVYDKVNDENQAKMREMLKTQKGFQRMADFALSKI	-0.535
HMREYEKAVDYVRRMISSGSLNVGDRLPTERELSLELDISRNSTREAMRMLENMGIIVSRHGSGNYISGN	-0.222
HMSKQQFLDELAARLREEGAELLVAENLNFYRSYIEEEVAKGRSEEEVLAELGNPALIARSILDAAGF	-1.15
HMINDPSALGQRAFVDELLWMAGYVPEKIEIYQTLPNNSRVYRVKLDSVNGGFIFIRWDKKKKEHYV	-0.444
HMSTPLPTGLPRGTIIEYTVQTDETLAIIAAKFNSTVDDIMTRNKITDPNTIYAGQILKVAINLVTP	-0.267
HMFTEEEMTKLRHELILAGIRLSRELGLQRMSVEKITSAVGIAKGSFYIFFDSKEDFILEIADHANRE	-0.828
HMSKQEFVDRLRVSLSGKISPASVEDNARYYEDYINTHIRLGEPEEDVLEGLGDPRLIARSIVAAESV	-0.0405
HMIPRGFSRYYILELLQKKPHTGKEIIDNAIKESGGRWNPSPGLIYPLLGRLLDENLIEETNDGKYK	-0.631
HMREKPRETFQRIAEKVGQTLRKGPVRVQQMDLLFSESREQVMEVLRAMAESGEIRIQDDTLHWNGHT	0.193
HMPTELVYTVPASAEGLRLDHFLVQHVPHMTRALATELTGAGGVRVNGRRAKKGDRLPSGAEVRLER	0.286
HMSDESALIAAIEKAIAAQPETAEKVRNGHLPAAGALIGSVMKETKGQADAARVRELLLGLLGQ	0.0231
HMELSESLENYLVVIYEAHLRNEIARIKDMTASLSVKHTSAIDAIKKLEDLGIVNYEKRGFVKLTQSGIEK	-0.177
HMSTSERLKQVMEVKGFNLKTFSEQADIPYRTLQNYILTNREPSAESLAKLHSQLGINLNWLMSGKGEMF	0.109
HMQKIENYDQFVQAFKRLSGLDLKLYKENQMKRRINNFINNHGFKENYDQFFQAITGNKELYNAFFKHLTI	-0.395
HMDENTEQESQTVVVPDVTGKSLSEAASILREAGLDYLAEQTGTVVTKQMPLPDAEVLINTTVLLYTDSE	-0.456
HMYHPGFEALREVARQGSFIKAARALGISGPAVSKQIKSLEARLNLVLLHRTTRAVTLTEAGQRLTEILD	-0.437
HMNDTLGVNIKRLRKEKGMTQDEVAKAVYTTRYNILRYESGKMTPSSEVIERLEKALGVPTGSLAQ	-0.0881
HMPYSKIALQISHLLKSHGVPLSNKQIYEKLINDFQLSINYSNLTNNILPRMNSDSSINVEKVTRGYWQY	0.22
